± gives the uncertainty stated by the source.
B1: POU domain, class 5, transcription factor 1, residues 134 to 212; numbered along this chain, Q01860 (parent)
chain: EESQDIKALQKELEQFAKLLKQKRITLGYTQADVGLTLGVLFGKVFSQTTICRFEALQLSFKNMCKLRPLLQKWVEEAD

Variants of: B1
Assay: abundance fitness (aPCA) (normalised: wild type 0, dead -1); higher = more abundant; growth selection in yeast, the domain comes from the species named
Settings: Homo sapiens

In order of rising abundance fitness:
1. EESQDIKALQKELEQFAKLLKQKRITLGYTQADVGLTLGVLFGKVFSQTTICRFEALQLSFKNYCKLRPLLQKWVEEAD [M64Y]  -1.06 ± 0.5
2. EESQDIKALQKELEQFAKLLKQKRITLAYTQADVGLTLGVLFGKVFSQTTICRFEALQLSFKNMCKLRPLLQKWVEEAD [G28A]  -1.06 ± 0.3
3. EESQDIKALQKELEQFAKLLKQKAITLGYTQADVGLTLGVLFGKVFSQTTICRFEALQLSFKNMCKLRPLLQKWVEEAD [R24A]  -0.859 ± 0.47
4. EESQDIKALQKECEQFAKLLKQKRITLGYTQADVGLTLGVLFGKVFSQTTICRFEALQLSFKNMCKLRPLLQKWVEEAD [L13C]  -0.806 ± 0.31
5. EESQDIKALQKELEQFAKLLKQKRITLVYTQADVGLTLGVLFGKVFSQTTICRFEALQLSFKNMCKLRPLLQKWVEEAD [G28V]  -0.787 ± 0.19
6. EESQDIKALQKELEQFRKLLKQKRITLGYTQADVGLTLGVLFGKVFSQTTICRFEALQLSFKNMCKLRPLLQKWVEEAD [A17R]  -0.768 ± 0.32
7. EESQDIKALQKELEQFAKLLKQKRITLGYTQADVGLTLGVLFGKVFSQTTICRFEALQLSFKNCCKLRPLLQKWVEEAD [M64C]  -0.739 ± 0.33
8. EESQDIKALQKELEQFAKLLKQKRITLGSTQADVGLTLGVLFGKVFSQTTICRFEALQLSFKNMCKLRPLLQKWVEEAD [Y29S]  -0.717 ± 0.21
9. EESQDIKALQKEQEQFAKLLKQKRITLGYTQADVGLTLGVLFGKVFSQTTICRFEALQLSFKNMCKLRPLLQKWVEEAD [L13Q]  -0.641 ± 0.34
10. EESQDIKALQKELEQFAKLLKQKRITLGYTQALVGLTLGVLFGKVFSQTTICRFEALQLSFKNMCKLRPLLQKWVEEAD [D33L]  -0.563 ± 0.23
11. EESQDIKALQKELEQFAKLLKQKRITLGYTQADVGLTLGVLFGKVFSQTTICRMEALQLSFKNMCKLRPLLQKWVEEAD [F54M]  -0.535 ± 0.24
12. EESQDIKALQKELEQFAKLLKQKRITLGYTQADVGLTLGVLFGKVFSQTTICRFEADQLSFKNMCKLRPLLQKWVEEAD [L57D]  -0.509 ± 0.34
13. EESQDIKALQKELEQFAKLLKQKRITLGYTQADVGLTLGVLFGKVFSQTTICRFEVLQLSFKNMCKLRPLLQKWVEEAD [A56V]  -0.464 ± 0.14
14. EESQDIKALQKELEQFAKLLKQKRITLGYHQADVGLTLGVLFGKVFSQTTICRFEALQLSFKNMCKLRPLLQKWVEEAD [T30H]  -0.437 ± 0.44
15. EESQDIKALQKELEQFAKLLKQKRITLGYTQADVGLTLGVLFGKVFSQLTICRFEALQLSFKNMCKLRPLLQKWVEEAD [T49L]  -0.418 ± 0.12
16. EESQDIKALQKELEQFAKLLKQKRITLGYTQADVGLTLGVLFGKVFSQTQICRFEALQLSFKNMCKLRPLLQKWVEEAD [T50Q]  -0.411 ± 0.34
17. EESQDIKALQKELEQFAKLLKQTRITLGYTQADVGLTLGVLFGKVFSQTTICRFEALQLSFKNMCKLRPLLQKWVEEAD [K23T]  -0.384 ± 0.27
18. EESQDIKALQKELTQFAKLLKQKRITLGYTQADVGLTLGVLFGKVFSQTTICRFEALQLSFKNMCKLRPLLQKWVEEAD [E14T]  -0.352 ± 0.16
19. EESQDIKALQKGLEQFAKLLKQKRITLGYTQADVGLTLGVLFGKVFSQTTICRFEALQLSFKNMCKLRPLLQKWVEEAD [E12G]  -0.35 ± 0.084
20. EESQDIKALQKELEQFAKLLKQKRITLGYTQADVGLTLGVLFGKVFSQTTIFRFEALQLSFKNMCKLRPLLQKWVEEAD [C52F]  -0.343 ± 0.29
21. EESQDIKALQKELEQFAKLLKQKRITLGYTQADVGLTLGVLFGKVFSQTTICRFEALQLSFKNMNKLRPLLQKWVEEAD [C65N]  -0.343 ± 0.29
22. EESQDIKALQKELETFAKLLKQKRITLGYTQADVGLTLGVLFGKVFSQTTICRFEALQLSFKNMCKLRPLLQKWVEEAD [Q15T]  -0.329 ± 0.23
23. EESQDIKALQKELEQFAKLLKQKRITLGYTQADVGLTLGVLFGKVFDQTTICRFEALQLSFKNMCKLRPLLQKWVEEAD [S47D]  -0.323 ± 0.28
24. EESQDIKALQKELEQFAKLLKQKRIILGYTQADVGLTLGVLFGKVFSQTTICRFEALQLSFKNMCKLRPLLQKWVEEAD [T26I]  -0.313 ± 0.48
25. EESQDIKALHKELEQFAKLLKQKRITLGYTQADVGLTLGVLFGKVFSQTTICRFEALQLSFKNMCKLRPLLQKWVEEAD [Q10H]  -0.31 ± 0.49
26. EESQDIKALQKELEQFAKLLKQKRITLGYTQADVGLTLGVLFGKVESQTTICRFEALQLSFKNMCKLRPLLQKWVEEAD [F46E]  -0.293 ± 0.15
27. EESQDIKALQKELEQFAKLLKQKRITLGYTQADVGLTLGVLFGKVFSQTMICRFEALQLSFKNMCKLRPLLQKWVEEAD [T50M]  -0.27 ± 0.29
28. EESQDIKALQKELEQFAFLLKQKRITLGYTQADVGLTLGVLFGKVFSQTTICRFEALQLSFKNMCKLRPLLQKWVEEAD [K18F]  -0.268 ± 0.44
29. EESQDIKALQKELEQFAKLLKQKRITLGYTQADVGLTLGVLFGDVFSQTTICRFEALQLSFKNMCKLRPLLQKWVEEAD [K44D]  -0.262 ± 0.2
30. EESQDIKALQKELEQFAKLLKQKRITLGYTQADLGLTLGVLFGKVFSQTTICRFEALQLSFKNMCKLRPLLQKWVEEAD [V34L]  -0.258 ± 0.21
31. EESQDIKALQKELEQFAKLLKQKRITLGYTQADVGLTLGVLFGKVFSQTTICRFEALQLSFKNMCKLRALLQKWVEEAD [P69A]  -0.252 ± 0.12
32. EESQDIKALQKENEQFAKLLKQKRITLGYTQADVGLTLGVLFGKVFSQTTICRFEALQLSFKNMCKLRPLLQKWVEEAD [L13N]  -0.252 ± 0.19
33. EESQDIKALQKELEQFAKLLKQKRITLGYTQADVGLTLGVLFGKVFSQGTICRFEALQLSFKNMCKLRPLLQKWVEEAD [T49G]  -0.243 ± 0.082
34. EESQDIKALGKELEQFAKLLKQKRITLGYTQADVGLTLGVLFGKVFSQTTICRFEALQLSFKNMCKLRPLLQKWVEEAD [Q10G]  -0.239 ± 0.082
35. EESQDIKALQKELEQFAKLLKQKRITLGVTQADVGLTLGVLFGKVFSQTTICRFEALQLSFKNMCKLRPLLQKWVEEAD [Y29V]  -0.216 ± 0.089
36. EESQDIKALQKELEQFAKLLKQKRITLGYTQADVGLTLGVLFGKVFSQTTICRFEALQLSFKNMCKLRPLLQKWQEEAD [V75Q]  -0.206 ± 0.34
37. EESQDIKALQKELEQFAKLLKQKRITLGYTQADVGLTLGVLFGKVFQQTTICRFEALQLSFKNMCKLRPLLQKWVEEAD [S47Q]  -0.196 ± 0.32
38. EESQDIKALQKELEQFAKLLKQKRITLGYTQADVGLYLGVLFGKVFSQTTICRFEALQLSFKNMCKLRPLLQKWVEEAD [T37Y]  -0.193 ± 0.38
39. EESQDIKALQKELEQAAKLLKQKRITLGYTQADVGLTLGVLFGKVFSQTTICRFEALQLSFKNMCKLRPLLQKWVEEAD [F16A]  -0.191 ± 0.32
40. EESQDIKALQKELEQFAKLLKQKRITLGYTQADVGLTLKVLFGKVFSQTTICRFEALQLSFKNMCKLRPLLQKWVEEAD [G39K]  -0.187 ± 0.24
41. EESQDIKALQKELEQFAKLLKQKRITDGYTQADVGLTLGVLFGKVFSQTTICRFEALQLSFKNMCKLRPLLQKWVEEAD [L27D]  -0.185 ± 0.25
42. EESQDIKALQKELEQFAKLLKQKRITLGYTQADVGLTLGVLFGKVFSQTTICRFEALQLSFKHMCKLRPLLQKWVEEAD [N63H]  -0.183 ± 0.31
43. EESQDIKALQKEHEQFAKLLKQKRITLGYTQADVGLTLGVLFGKVFSQTTICRFEALQLSFKNMCKLRPLLQKWVEEAD [L13H]  -0.176 ± 0.19
44. EESQDIKALQKELEQFAKLLKQKRITLGYTQADVGLTLGVLFGKVFSQTTICRFEALQLSFKNMCKLRPLLQKWVEAAD [E77A]  -0.124 ± 0.099
45. EESQDIKALQKELEQFAKLLKQKRITLGYTLADVGLTLGVLFGKVFSQTTICRFEALQLSFKNMCKLRPLLQKWVEEAD [Q31L]  -0.093 ± 0.2
46. EESGDIKALQKELEQFAKLLKQKRITLGYTQADVGLTLGVLFGKVFSQTTICRFEALQLSFKNMCKLRPLLQKWVEEAD [Q4G]  -0.064 ± 0.07
47. EESQDIKALQKELEQFAKLLKQKRITLGYTQADVGLTLGVLFGKVFSQTTICRFEALQLSFKNMCKMRPLLQKWVEEAD [L67M]  -0.052 ± 0.16
48. EESQDIKALQKELHQFAKLLKQKRITLGYTQADVGLTLGVLFGKVFSQTTICRFEALQLSFKNMCKLRPLLQKWVEEAD [E14H]  -0.037 ± 0.16
49. EESQDIEALQKELEQFAKLLKQKRITLGYTQADVGLTLGVLFGKVFSQTTICRFEALQLSFKNMCKLRPLLQKWVEEAD [K7E]  -0.025 ± 0.075
50. EESQDIKALQKELEQPAKLLKQKRITLGYTQADVGLTLGVLFGKVFSQTTICRFEALQLSFKNMCKLRPLLQKWVEEAD [F16P]  -0.023 ± 0.34
51. EESQDINALQKELEQFAKLLKQKRITLGYTQADVGLTLGVLFGKVFSQTTICRFEALQLSFKNMCKLRPLLQKWVEEAD [K7N]  -0.022 ± 0.14
52. EESQDIKALQKELEQFAKLLKQKRITCGYTQADVGLTLGVLFGKVFSQTTICRFEALQLSFKNMCKLRPLLQKWVEEAD [L27C]  0.039 ± 0.19
53. EESQDIKAVQKELEQFAKLLKQKRITLGYTQADVGLTLGVLFGKVFSQTTICRFEALQLSFKNMCKLRPLLQKWVEEAD [L9V]  0.044 ± 0.076
54. EESQDIKALQKELEQFAKLLKQKRITLGYTQADVGLTLGVLFGKVFSQTTICRFEALQLSFKNMCKLRPLLQKWIEEAD [V75I]  0.056 ± 0.22
55. EESQDIKALQKELEQFAKLLKQKRIGLGYTQADVGLTLGVLFGKVFSQTTICRFEALQLSFKNMCKLRPLLQKWVEEAD [T26G]  0.071 ± 0.12
56. EESQDIKALQKELYQFAKLLKQKRITLGYTQADVGLTLGVLFGKVFSQTTICRFEALQLSFKNMCKLRPLLQKWVEEAD [E14Y]  0.076 ± 0.2
57. EESQDIKALQKELEQFAKLLKQKRITLGYTQADPGLTLGVLFGKVFSQTTICRFEALQLSFKNMCKLRPLLQKWVEEAD [V34P]  0.101 ± 0.2
58. EESQDIKALQKELEQFAKLLKQKRITLGYTQADVGLTLGVLFGKVFSQTTICHFEALQLSFKNMCKLRPLLQKWVEEAD [R53H]  0.118 ± 0.26
59. EESQDIKALQKELEQFAKLLKQKRITLGYTQADVGLTLGVLFGKVFSQTTICRFEALQLSFKEMCKLRPLLQKWVEEAD [N63E]  0.126 ± 0.14
60. EESQDIKALQKELEQFAKLLKQKRITLGYTQADVGLHLGVLFGKVFSQTTICRFEALQLSFKNMCKLRPLLQKWVEEAD [T37H]  0.162 ± 0.2
61. EESQDIKALQKELEQFAKLLKQKRITLGYTQADVGLTLGVLFGKVFSDTTICRFEALQLSFKNMCKLRPLLQKWVEEAD [Q48D]  0.164 ± 0.44
62. EESQDIKALQKELEQFAKLLKQKRITLGYTQADVGLTMGVLFGKVFSQTTICRFEALQLSFKNMCKLRPLLQKWVEEAD [L38M]  0.185 ± 0.15
63. EESQDTKALQKELEQFAKLLKQKRITLGYTQADVGLTLGVLFGKVFSQTTICRFEALQLSFKNMCKLRPLLQKWVEEAD [I6T]  0.195 ± 0.12
64. EGSQDIKALQKELEQFAKLLKQKRITLGYTQADVGLTLGVLFGKVFSQTTICRFEALQLSFKNMCKLRPLLQKWVEEAD [E2G]  0.211 ± 0.26
65. EESQDIKALQKELEQFAKLLKQKRITLGYTQADVGRTLGVLFGKVFSQTTICRFEALQLSFKNMCKLRPLLQKWVEEAD [L36R]  0.235 ± 0.059
66. EESQDIKALQKELEQFAKLLKSKRITLGYTQADVGLTLGVLFGKVFSQTTICRFEALQLSFKNMCKLRPLLQKWVEEAD [Q22S]  0.268 ± 0.14
67. EESQDIKALQKELEQFAKLLKQKRITLGYTEADVGLTLGVLFGKVFSQTTICRFEALQLSFKNMCKLRPLLQKWVEEAD [Q31E]  0.276 ± 0.1
68. EESQDIKALQKELEQFAKLLKQKRITLGYTQADVGLALGVLFGKVFSQTTICRFEALQLSFKNMCKLRPLLQKWVEEAD [T37A]  0.345 ± 0.074
69. EESQDIKPLQKELEQFAKLLKQKRITLGYTQADVGLTLGVLFGKVFSQTTICRFEALQLSFKNMCKLRPLLQKWVEEAD [A8P]  0.697 ± 0.5
